# Results published in patent publication US20190330271A1.
# T1: amylin fibers, P10997
# T1 chain: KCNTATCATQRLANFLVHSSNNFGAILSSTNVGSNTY
# T2: amylin monomers, P10997
# T2 chain: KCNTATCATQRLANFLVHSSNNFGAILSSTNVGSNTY
# T3: amylin oligomers, P10997
# T3 chain: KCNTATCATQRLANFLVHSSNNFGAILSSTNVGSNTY
# Key:
# Aβ42 = Aβ42 (UniProt P05067); assay: cell-based or functional assay
# amylin = amylin (UniProt P10997); assay: cell-based or functional assay
# insulin = assay: cell-based or functional assay
# lysozyme = assay: cell-based or functional assay
# Aβ42 fibers, P05067 = assay: ELISA, amyloid coated at 1 µg/well, His-tagged ZR detected with HRP-linked antibody
# Aβ42 fibers, P05067, sequence (P05067 672-713 limits assumed): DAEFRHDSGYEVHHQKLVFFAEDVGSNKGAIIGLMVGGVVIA
# Aβ42 monomers, P05067 = assay: as above
# Aβ42 monomers, P05067, sequence (P05067 672-713 limits assumed): as above
# Aβ42 oligomers, P05067 = assay: as above
# Aβ42 oligomers, P05067, sequence (P05067 672-713 limits assumed): as above
# amylin fibers, P10997 = biological target: T1, amylin fibers, P10997; assay: as above
# amylin monomers, P10997 = biological target: T2, amylin monomers, P10997; assay: as above
# amylin oligomers, P10997 = biological target: T3, amylin oligomers, P10997; assay: as above
# Aβ42, sequence (P05067 672-713 limits assumed): as above
binder,measurement,setting,value
SFFNNKR [ZR polypeptide (SEQ ID NO. 2)],"ThT fluorescence value, Aβ42 with ZR at a molar ratio of 1:1 (Aβ42 alone: 26500)",Aβ42,22000
same,"ThT fluorescence value, Aβ42 with ZR at a molar ratio of 1:10 (Aβ42 alone: 26500)",Aβ42,17000
same,"cell activity of SH-SY5Y cells (MTT), Aβ:ZR=1:0.5 group (Aβ42 group: 71%)",Aβ42,80%
same,"cell activity of SH-SY5Y cells (MTT), Aβ:ZR=1:1 group (Aβ42 group: 71%)",Aβ42,82%
same,"cytotoxicity inhibited, molar ratio 1:1",Aβ42,37.8%
same,"ThT fluorescence value, amylin with ZR at a molar ratio of 1:1 (amylin alone: 38000)",amylin,41000
same,"ThT fluorescence value, amylin with ZR at a molar ratio of 1:10 (amylin alone: 38000)",amylin,43000
same,"cell activity of SH-SY5Y cells (MTT), Amylin:ZR=1:1 group (Amylin group: 61%)",amylin,70%
same,"cell activity of SH-SY5Y cells (MTT), Amylin:ZR=1:10 group (Amylin group: 61%)",amylin,75%
same,"cytotoxicity inhibited, molar ratio 1:10",amylin,45.4%
same,"ThT fluorescence value, insulin with ZR at a molar ratio of 1:1 (insulin alone: 305000)",insulin,305000
same,"ThT fluorescence value, insulin with ZR at a molar ratio of 1:10 (insulin alone: 305000)",insulin,310000
same,"cell activity of SH-SY5Y cells (MTT), insulin:ZR=1:1 group (insulin group: 77%)",insulin,92%
same,"cell activity of SH-SY5Y cells (MTT), insulin:ZR=1:5 group (insulin group: 77%)",insulin,102%
same,"cytotoxicity inhibited, molar ratio 1:5",insulin,89.8%
same,"ThT fluorescence value, lysozyme with ZR at a molar ratio of 1:1 (lysozyme alone: 310000)",lysozyme,220000
same,"ThT fluorescence value, lysozyme with ZR at a molar ratio of 1:10 (lysozyme alone: 310000)",lysozyme,170000
same,"cell activity of SH-SY5Y cells (MTT), lysozyme:ZR=1:1 group (lysozyme group: 55%)",lysozyme,85%
same,"cell activity of SH-SY5Y cells (MTT), lysozyme:ZR=1:10 group (lysozyme group: 55%)",lysozyme,93%
same,"cytotoxicity inhibited, molar ratio 1:10",lysozyme,118%
SFFNNKR (modifications not checked) [histidine-tagged ZR polypeptide (SEQ ID NO. 2)],OD450,"Aβ42 fibers, P05067",0.35
same,OD450,"Aβ42 monomers, P05067",0.34
same,OD450,"Aβ42 oligomers, P05067",0.38
same,OD450,"amylin fibers, P10997",0.18
same,OD450,"amylin monomers, P10997",0.41
same,OD450,"amylin oligomers, P10997",0.5
